Data: US20200239555A1 (STATEN BIOTECHNOLOGY B V, published 2020)

Key:
[1] = target: T1, biotinylated native human ApoC3 (human, UniProt P02656 21-99, biotinylated (site not stated)); assay: SPR, IgG1 over biotinylated ApoC3 on SA chip
T1 construct: also called biotinylated human ApoC3
Protocol: (§1) Biotinylated native human ApoC3 was captured on a streptavidin coated SPR chip (GE Healthcare, cat. nr. BR100032) at pH 7.4, in accordance with the method provided by Biacore, by injection of 20 μl 10 μg/ml biotinylated native human ApoC3 reaching the surface density of approximately 500 RU. 60 μL of test antibody in 1-50 nM range diluted in HBS-EP buffer (GE, cat # BR-1008-26; 0.010 M HEPES, 0.150M NaCl, 3 mM EDTA, 0.05% (v/v) surfactant P20, pH 7.4) was injected and passed through the flow cells at a flow rate of 30 μl/min, followed by an off-rate wash at pH7.4 for 5 min. After the dissociation, the flow cell surfaces were regenerated by injecting 10 μl of 10 mM NaOH/1 M NaCl and 10 μl of 10 mM glycine at pH1.5. The assay was repeated at pH5.5 using the same general protocol, where the running and sample dilution buffer was replaced by a HBS-EP buffer supplemented with citrate buffer to 10 mM final concentration and pH adjusted to 5.5.
(§2) The resulting sensorgrams were analyzed using the BIAevaluation 4.1 software using Langmuir 1:1 binding model to derive binding kinetics. Data was zero adjusted and the reference cell sensorgrams were subtracted. Sensorgrams were double referenced to no-analyte blank assay. Fitted parameters were considered not applicable if off-rate values were below the equipment's detection limit of kd: 1×10⁻⁶ 1/s.

[2] = target: T1, biotinylated native human ApoC3; assay: SPR, IgG1 over biotinylated ApoC3 on SA chip, pH 7.4
Protocol: as §1, §2

[3] = target: T1, biotinylated native human ApoC3; assay: SPR, IgG1 over biotinylated ApoC3 on SA chip, pH 5.5
Protocol: as §1, §2

[4] = target: T2, native human ApoC3 (human, UniProt P02656 21-99); assay: SPR, ApoC3 over captured IgG1, pH 7.4
T2 construct: also called nhuApoC3; native huApoC3
Protocol: (§3) An inverted SPR assay was designed in which a test antibody was captured on an SPR chip, human ApoC3 protein was injected, and binding of ApoC3 to the antibody was measured. […] The immobilization was performed in accordance with the method provided by Biacore/GE using the NHS/EDC kit (Biacore AB, Cat.nr. BR-1000-50): after activation of the chip, a solution of 30 μg/ml of anti-human Fcγ antibody in 10 mM acetate buffer with pH of 5.0 was prepared and injected until the surface density reached approximately 10000 RU. The analytical cycle comprised the following steps:
(§4) The resulting sensorgrams were analyzed using the BIAevaluation 4.1 software using Langmuir 1:1 binding model to derive binding kinetics. Data was zero adjusted, the reference cell sensorgrams were subtracted and the no analyte blank assay was used for double referencing the sensorgrams corresponding to the analyte injections. The dissociation and association phase sensorgrams were fitted separately for the 4 different concentration curves. Sensorgrams were excluded from the fitting if maximum RU values reached were below the detection limit of the equipment (<5 RU), Biacore 3000 (Biacore AB).

[5] = target: T2, native human ApoC3; assay: SPR, ApoC3 over captured IgG1, pH 5.5
Protocol: as §3, §4

[6] = target: T2, native human ApoC3; assay: SPR, ApoC3 over captured IgG1
Protocol: as §3, §4

T1 sequence (P02656 21-99): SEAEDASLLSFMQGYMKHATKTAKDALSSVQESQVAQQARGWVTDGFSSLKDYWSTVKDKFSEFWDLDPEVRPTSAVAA
T2 sequence (P02656 21-99): as above

Row | Binder | KD pH5.5/KD pH7.4 [1] | Ka [2] [M⁻¹] | Kd [2] [nM] | koff [2] [s⁻¹] | kon [2] [M⁻¹ s⁻¹] | Ka [3] [M⁻¹] | koff [3] [s⁻¹] | kon [3] [M⁻¹ s⁻¹] | Ka [4] [M⁻¹] | koff [4] [s⁻¹] | kon [4] [M⁻¹ s⁻¹] | Ka [5] [M⁻¹] | koff [5] [s⁻¹] | kon [5] [M⁻¹ s⁻¹] | KD (nM) pH5.5/pH7.4 [6] | Kd [3] [nM] | Kd [4] [nM]
1 | mAb7 (antibody, V domains shown, Produced as full length IgG1 (kappa) in ExpiCHO-S cells; also called humanized anti-ApoC3 antibody mAb7) VH: QLVESGGGLVQPGGSLRLSCAASGFTFSTYSMRWVRQAPGKGLEWVSSIHTGGGGTAYRDSVKGRFTISRDNAKNTLYLQMNNLRAEDTAIYYCVIAGYSDWGQGTLVTVSS VL: DIVMTQSPLSLPVTPGESASISCKTSQGLVHSDGKTYFYWFLQKPGQSPQQLIYQVSNRASGVPDRFSGSGSGTDFTLKISRVKAEDAGVYYCAHGTYYPHTFGQGTRLEIK | 52.7 | 1.08e+10 | 0.09 | 3.37e-05 | 364000 | 2.05e+08 | 0.00321 | 656000 | 4.05e+06 | 0.012 | 48500 | 1.71e+06 | 0.0646 | 111000 | 2.36 |  | 
2 | mAb19 (antibody, IgG1, V domains shown, Produced as full length IgG1 (kappa) in ExpiCHO-S cells; also called humanized anti-ApoC3 antibody mAb19) VH: QLVESGGGLVQPGGSLRLSCAASGFTFSTYSMRWVRQAPGKGLEWVSSIHTDAGGTAYRDSVKGRFTISRDNAKNTLYLQMNNLRPEDTAVYYCVIAGYSDWGQGTLVTVSS VL: DIVMTQSPGSLSVTPGEPASISCKTSQGLVHSGGKTYFYWFLQKPGQSPQQLIYQVSNRASGVPDRFTGSGSGTDFTLKISGVEAEDAGVYYCAQGTYYPHTFGQGTRLEIK | 9.21 | 2.21e+10 | 0.05 | 2.9e-05 | 640000 | 2.4e+09 | 0.000296 | 710000 | 2.82e+07 | 0.00463 | 130000 | 6.37e+06 | 0.0198 | 127000 | 4.42 | 0.42 | 36
3 | mAb11 (antibody, IgG1, V domains shown, Produced as full length IgG1 (kappa) in ExpiCHO-S cells; also called humanized anti-ApoC3 antibody mAb11) VH: QLVESGGGLVQPGGSLRLSCAASGFTFSTYSMRWVRQVPGKGLEWVSSIHTEGGGTAYRDSVKGRFTISRDNAKNTLYLQMNNLRAEDTAVYYCVIAGYSDWGQGTLVTVSS VL: DIVMTQSPLSLSVTPGEPASISCKTSQGLVHSDGKTYFYWFLQKPGQSPQQLIYQVSNRASGVPDRFSGSGSGTDFTLKISRVEAEDVGVYYCAHGTYYPHTFGQGTRLEIK | 1.91 | 5.77e+09 | 0.17 | 3.8e-05 | 219000 | 3.02e+09 | 0.000147 | 445000 | 7.73e+06 | 0.00523 | 40400 | 1.99e+06 | 0.0405 | 80500 | 3.9 | 0.33 | 
4 | mAb10 (antibody, IgG1, V domains shown, Produced as full length IgG1 (kappa) in ExpiCHO-S cells; also called humanized anti-ApoC3 antibody mAb10) VH: QLVESGGGLVQPGGSLRLSCAASGFTFSTYSMRWVRQVPGKGLEWVSSIHTEGGGTAYRDSVKGRFTISRDNAKNTLYLQMNNLRAEDTAVYYCVIAGYSDWGQGTLVTVSS VL: DIVMTQSPLSLSVVPGEPASISCKTSQGLVHSDGKTYFYWFLQKPGQSPQQLIYQVSNRASGVPDRFSGSGSGTDFTLKISRVEAEDVGVYYCAHGTYYPHTFGQGTRLEIK | 2.82 | 1.05e+10 | 0.1 | 2.12e-05 | 221000 | 3.7e+09 | 0.000113 | 417000 | 5.3e+06 | 0.00601 | 31900 | 2.99e+06 | 0.0274 | 82100 | 1.77 |  | 
5 | mAb8 (antibody, IgG1, V domains shown, Produced as full length IgG1 (kappa) in ExpiCHO-S cells; also called humanized anti-ApoC3 antibody mAb8) VH: QLVESGGGLVQPGGSLRLSCAASGFTFSTYSMRWVRQAPGKGLEWVSSIHTDAGGTAYRDSVKGRFTISRDNAKNTLYLQMNNLRAEDTAVYYCVIAGYSDWGQGTLVTVSS VL: DIVMTQSPLSLSVVPGEPASISCKTSQGLVHSDGKTYFYWFLQKPGQSPQQLIYQVSNRASGVPDRFSGSGSGTDFTLKISRVEAEDVGVYYCAHGTYYPHTFGQGTRLEIK | 7.34 | 9.83e+09 | 0.1 | 2.41e-05 | 237000 | 1.34e+09 | 0.000367 | 490000 | 4.15e+06 | 0.00772 | 32100 | 4.13e+06 | 0.0205 | 84600 | 1 | 0.75 | 
6 | mAb12 (antibody, IgG1, V domains shown, Produced as full length IgG1 (kappa) in ExpiCHO-S cells; also called humanized anti-ApoC3 antibody mAb12) VH: QLVESGGGLVQPGGSLRLSCAASGFTFSTYSMRWVRQVPGKGLEWVSSIHTDAGGTAYRDSVKGRFTISRDNAKNTLYLQMNSLRPEDTAIYYCVIAGYSDWGQGTLVTVSS VL: DIVMTQSPLSLSVTPGEPASISCKTSQGLVHSDGKTYFYWFLQKPGQSPQQLIYQVSNRASGVPDRFTGSGSGTDFTLKISRVKAEDVGVYYCAHGTYYPHTFGQGTRLEIK | 2.12 | 1.53e+10 | 0.07 | 1.49e-05 | 228000 | 7.18e+09 | 6.73e-05 | 483000 | 3.12e+06 | 0.00655 | 20400 | 2.91e+06 | 0.0251 | 73200 | 1.07 | 0.14 | 
7 | mAb17 (antibody, IgG1, V domains shown, Produced as full length IgG1 (kappa) in ExpiCHO-S cells; also called humanized anti-ApoC3 antibody mAb17) VH: QLVESGGGLVQPGGSLRLSCAASGFTFSTYSMRWVRQAPGKGLEWVSSIHTEAGGTAYRDSVKGRFTISRDNAKNTLYLQMNNLRAEDTAVYYCVIAGYSDWGQGTLVTVSS VL: DIVMTQSPLSLPVTPGEPASISCKTSQGLVHSGGKTYFYWFLQKPGQSPQQLIYQVSNRASGVPDRFTGSGSGTDFTLKISRVEAEDAGVYYCAQGTYYPHTFGQGTRLEIK | 7.37 | 2.15e+10 | 0.05 | 2.33e-05 | 503000 | 2.92e+09 | 0.000276 | 806000 | 1.6e+07 | 0.00616 | 98700 | 3.89e+06 | 0.0217 | 84500 | 4.12 | 0.34 | 62
8 | mAb9 (antibody, IgG1, V domains shown, Produced as full length IgG1 (kappa) in ExpiCHO-S cells; also called humanized anti-ApoC3 antibody mAb9) VH: QLVESGGGLVQPGGSLRLSCAASGFTFSTYSMRWVRQAPGKGLEWVSSIHTDAGGTAYRDSVKGRFTISRDNAKNTLYLQMNNLRAEDTAVYYCVIAGYSDWGQGTLVTVSS VL: DIVMTQSPLSLSVTPGEPASISCKTSQGLVHSDGKTYFYWFLQKPGQSPQQLIYQVSNRASGVPDRFSGSGSGTDFTLKISRVEAEDVGVYYCAHGTYYPHTFGQGTRLEIK | 5.09 | 6.71e+09 | 0.15 | 3.32e-05 | 223000 | 1.32e+09 | 0.000369 | 486000 | 4.31e+06 | 0.00669 | 28800 | 1.85e+06 | 0.0467 | 86300 | 2.33 | 0.76 | 
